Test results published in PMC12059646, “Functional Characterization of Luciferase in a Brittle Star Indicates Parallel Evolution Influenced by Genomic Availability of Haloalkane Dehalogenase” (Molecular Biology and Evolution, 2025).

Experiments:
[1] = system: T1, AfLuc; assay: luminescence steady-state kinetics, global numerical analysis; assay type: biochemical, Amphiura filiformis; details: 25 nM protein
T1 construct: codon-optimised synthetic gene in pET21b, E. coli BL21, Ni-NTA purified

[2] = substrate: Oc1ccc(Cc2nc3c(Cc4ccccc4)nc(-c4ccc(O)cc4)cn3c2O)cc1; assay: as above; assay type: biochemical, Renilla reniformis; details: 25 nM protein

Km [1] [µM]	Molecule	Km [2] [µM]	kcat [2] [s⁻¹]
1.21 ± 0.03	Oc1ccc(Cc2nc3c(Cc4ccccc4)nc(-c4ccc(O)cc4)cn3c2O)cc1 [coelenterazine]	–	–
–	RLuc (Renilla reniformis) (protein, codon-optimised synthetic gene in pET21b, E. coli BL21, Ni-NTA purified) MTSKVYDPEQRKRMITGPQWWARCKQMNVLDSFINYYDSEKHAENAVIFLHGNAASSYLWRHVVPHIEPVARCIIPDLIGMGKSGKSGNGSYRLLDHYKYLTAWFELLNLPKKIIFVGHDWGACLAFHYSYEHQDKIKAIVHAESVVDVIESWDEWPDIEEDIALIKSEEGEKMVLENNFFVETMLPSKIMRKLEPEEFAAYLEPFKEKGEVRRPTLSWPREIPLVKGGKPDVVQIVRNYNAYLRASDDLPKMFIESDPGFFSNAIVEGAKKFPNTEFVKVKGLHFSQEDAPDEMGKYIKSFVERVLKNEQ	0.91 ± 0.05	4.2 ± 0.2
